Experiments:
[1] = target: CD5 on murine T cells (mouse) (UniProt P13379); assay: cell-based or functional assay
[2] = target: CD5 on human ACH2 immortalized T cells (human) (UniProt P06127); assay: cell-based or functional assay
UniProt P06127, sequence (P06127 25-495 limits assumed): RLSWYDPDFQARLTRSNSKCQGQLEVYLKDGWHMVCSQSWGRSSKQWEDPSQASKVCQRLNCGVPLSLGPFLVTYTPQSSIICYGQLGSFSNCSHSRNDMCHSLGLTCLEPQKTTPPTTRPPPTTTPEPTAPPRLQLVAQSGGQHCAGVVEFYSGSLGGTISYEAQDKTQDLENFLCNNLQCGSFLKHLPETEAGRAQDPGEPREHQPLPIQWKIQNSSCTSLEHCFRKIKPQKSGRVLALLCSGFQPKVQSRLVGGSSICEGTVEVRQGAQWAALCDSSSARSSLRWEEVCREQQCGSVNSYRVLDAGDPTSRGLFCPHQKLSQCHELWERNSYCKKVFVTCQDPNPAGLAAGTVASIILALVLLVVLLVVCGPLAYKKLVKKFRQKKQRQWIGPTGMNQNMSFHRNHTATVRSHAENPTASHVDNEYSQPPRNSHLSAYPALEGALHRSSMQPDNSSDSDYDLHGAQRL

UniProt P13379, sequence (P13379 24-494 limits assumed): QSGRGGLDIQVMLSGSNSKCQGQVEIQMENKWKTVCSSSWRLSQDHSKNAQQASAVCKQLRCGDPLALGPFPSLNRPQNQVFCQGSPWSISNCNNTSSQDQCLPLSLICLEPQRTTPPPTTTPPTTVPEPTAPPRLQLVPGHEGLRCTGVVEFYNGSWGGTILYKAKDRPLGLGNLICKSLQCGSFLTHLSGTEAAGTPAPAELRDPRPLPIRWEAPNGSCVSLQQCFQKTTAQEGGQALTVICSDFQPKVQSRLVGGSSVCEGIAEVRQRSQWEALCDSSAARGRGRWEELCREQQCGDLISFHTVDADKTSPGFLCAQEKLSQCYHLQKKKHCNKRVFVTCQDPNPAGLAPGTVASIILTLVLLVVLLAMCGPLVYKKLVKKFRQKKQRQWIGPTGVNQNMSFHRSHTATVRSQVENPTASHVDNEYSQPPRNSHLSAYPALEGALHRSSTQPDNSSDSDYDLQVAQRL

## control isotype matched IgG conjugated to LNP-mRNA (antibody)
[1]
  percent of murine T cells that received mRNA from IgG/LNP-FAPCAR (flow cytometry): 7%

## mouse anti-human CD5, clone UCHT2 (BioLegend), conjugated to LNP-mRNA (antibody)
[2]
  percent gene transfer (GFP) in human ACH2 T cells 24 hours after mixing with CD5/LNP-GFP: 89 to 93%

## purified rat anti-mouse CD5, clone 53-7.3 (BioLegend), conjugated to LNP-mRNA (antibody)
[1]
  percent of murine T cells expressing FAPCAR 48 hours after incubation with CD5/LNP-FAPCAR (flow cytometry): 83%
  percent of murine T cells expressing GFP 48 hours after incubation with CD5/LNP-GFP (flow cytometry): 78%
